Laboratory results taken from paper PMC10266124 (mAbs, 2023).

B1: mAb27 (H014) (antibody, V domains shown)
VH: EVQLVQSGAEVKKPGATVKISCKVSGYSFSNYYIHWVKQAPGKSLEWIGYIDPFNGGTSDNLKFKGAATLTADTSTDTAYMELSSLRSEDTAVYYCARSEYDPYYVMDYWGQGTTVTVSS
VL: IVLTQSPFQSVSPKEKVTITCRASQSISSNLHWYQQKPDQSPKLLIKYASQSISGIPSRFSGSGSGTDFTLTINSLEAEDFGIYFCQQTNFWPYIFGQGTKLEIL
B2: mAb03 (imdevimab) (antibody, V domains shown)
VH: QVQLVESGGGVVQPGRSLRLSCAASGFTFSNYAMYWVRQAPGKGLEWVAVISYDGSNKYYADSVKGRFTISRDNSKNTLYLQMNSLRTEDTAVYYCASGSDYGDYLLVYWGQGTLVTVSS
VL: QSALTQPASVSGSPGQSITISCTGTSSDVGGYNYVSWYQQHPGKAPKLMIYDVSKRPSGVSNRFSGSKSGNTASLTISGLQSEDEADYYCNSLTSISTWVFGGGTKLTVL
B3: mAb21 (S2A4) (antibody, V domains shown)
VH: EVQLVESGGGLVQPGGSLRLSCAASGFTFSSYWMNWVRQAPGKGLEWVANIKQDGSEKYYVDSVKGRFTISRDNAKNSLFLQMNSLRAEDTAVYYCARVWWLRGSFDYWGQGTLVTVSS
VL: NFMLTQPHSVSESPGKTVTISCTGSSGSIASNYVQWYQQRPGSAPTTVIYEDNQRPSGVPDRFSGSIDSSSNSASLTISGLKTEDEADYYCQSYDSSNHVVFGGGTKLTVL
B4: mAb26 (4A8) (antibody, V domains shown)
VH: EVQLVESGAEVKKPGASVKVSCKVSGYTLTELSMHWVRQAPGKGLEWMGGFDPEDGETMYAQKFQGRVTMTEDTSTDTAYMELSSLRSEDTAVYYCATSTAVAGTPDLFDYYYGMDVWGQGTTVTVSS
VL: EIVMTQSPLSSPVTLGQPASISCRSSQSLVHSDGNTYLSWLQQRPGQPPRLLIYKISNRFSGVPDRFSGSGAGTDFTLKISRVEAEDVGVYYCTQATQFPYTFGQGTKVDIK

Key:
Experiment in all cases: electrochemiluminescence
[1] = target: SARS-CoV-2 spike protein, Delta *3 (B.1.617.2; AY.3; AY.5; AY.6; AY.7; AY.14) (SARS-CoV-2, Delta (B.1.617.2; AY.3; …, L452R)
[2] = target: SARS-CoV-2 spike protein, Delta *2 (B.1.617.2; AY.4.2) (SARS-CoV-2, Delta B.1.617.2; AY.4.2 …, L452R)
[3] = target: SARS-CoV-2 spike protein, Delta *1 (B.1.617.2; AY.4) (SARS-CoV-2, Delta B.1.617.2; AY.4 …, L452R)
[4] = target: SARS-CoV-2 spike protein, Gamma (P.1) (SARS-CoV-2, Gamma (P.1), E484K)

Binder	relative binding (% of that to Wuhan spike, from AUCs) [1]	relative binding (% of that to Wuhan spike, from AUCs) [2]	relative binding (% of that to Wuhan spike, from AUCs) [3]	relative binding (% of that to Wuhan spike, from AUCs) [4]
B1	> 80%	> 80%	> 80%	
B2	> 80%	> 80%	> 80%	
B3	> 80%	> 80%	> 80%	
B4				≥ 20%
